US20100204147A1, “Methods For Delivering Thymosin Beta 4, Analogues, Isoforms and Other Derivatives” (REGENERX BIOPHARMACEUTICALS, INC., priority 2003, published 2010)

Target: T1, αC-domain (residues Aα221-610) (Homo sapiens, UniProt P02671)
T1 construct: human fibrinogen αC-domain (residues Aα221-610); made in house; host or cells: E. coli, pET20b expression vector
T1 sequence (P02671 240-629): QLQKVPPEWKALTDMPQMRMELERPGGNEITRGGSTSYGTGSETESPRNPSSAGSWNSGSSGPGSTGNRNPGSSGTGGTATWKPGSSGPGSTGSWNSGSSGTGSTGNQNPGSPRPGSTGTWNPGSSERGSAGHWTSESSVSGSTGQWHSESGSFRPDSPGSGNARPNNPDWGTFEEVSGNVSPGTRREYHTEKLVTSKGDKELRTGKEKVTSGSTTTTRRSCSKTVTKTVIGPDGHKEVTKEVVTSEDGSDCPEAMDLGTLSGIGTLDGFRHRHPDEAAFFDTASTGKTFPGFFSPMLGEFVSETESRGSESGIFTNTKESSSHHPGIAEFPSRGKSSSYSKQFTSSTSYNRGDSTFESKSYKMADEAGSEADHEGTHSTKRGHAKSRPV
Test: ELISA and kinetic analysis of incorporation into immobilized αC-domain
Assay type: biochemical
Method: The interaction between thymosin β4 and fibrin(ogen) and its fragments in the presence or absence of FXIIIa was studies by ELISA using plastic microliter plates. Wells of microliter plates were coated overnight at […] with fibrinogen and fibrin at 10 μg/mL or with the recombinant fragments of 20 μg/ml, all in 0.1 M NaHCO3 buffer, pH 8.3. Fibrin was made by addition to the wells of a mixture containing 10 μg/mL fibrinogen 1 NIH u/ml thrombin and 400 u/ml aprotinin, followed by overnight incubation at +4° C. The wells were then blocked by incubation with Super Blocker (Pierce) at 37° C. for 1 h. Following washing with TBS containing 0.05% Tween-20 (TBS-Tween), the indicated concentrations of thymosin β4, FXIII, FXIIIa(Thr) and FXIIIa(Ca) were added to the wells and incubated for 2-2.5 h at 37° C. Bound (incorporated) thymosin β4 was detected by the reaction with rabbit anti-thymosin β4 serum and peroxidase-conjugated anti-rabbit IgG. A TMB Microwell Peroxidase Substrase was added to the wells, and the incorporated thymosin β4 was measured spectrophotometrically at 450 nm.
To analyze kinetics of the incorporation of thymosin β4 into different fibrin(ogen) fragments, they were immobilized onto the wells of microliter plates (as described above, except that the concentration of all fragments was 20 μg/mL) and incubated with several concentrations of thymosin β4 in the presence of 10 μg/L thrombin-activated factor XIIIa. The incubation mixtures were inhibited every 15 min during 1 hour of incubation by the addition of iodacetamide to final concentration 10 mM. Incorporated thymosin β4 at each time point was detected with rabbit anti-thymosin β4 serum as described above. The initial rates of the reaction of incorporation (V) at different concentrations of thymosin β4 were determined from the slopes of the reaction time course plots and expressed as tangent α=A450/t (min), where A450 represents absorbance at 450 nm in optical units (o.u) which is proportional to the amount of incorporated thymosin β4. […]

non-covalent interaction with αC-domain (ELISA) (non-activated factor XIII or without it): no significant non-covalent interaction | incorporation into immobilized αC-domain (ELISA) (presence of factor XIIIa): incorporated effectively | Km (thrombin-activated factor XIIIa, Lineweaver-Burk plot, read-out: apparent Michaelis constant (Km) for incorporation into the αC-domain): 17.6 ± 2.5 µM
Substance: thymosin β4
